Measured values as given in patent publication US20250009780A1, “AGENTS ENCODING CLDN6 AND CD3 BINDING ELEMENTS FOR TREATING CLDN6-POSITIVE CANCERS” (BIONTECH SE, priority 2021, published 2025).

Target: human CD3 (human) (UniProt P09693)
Assay: cell-based or functional assay

Sequence of human CD3 (human) (chain, as listed by the source, chain 1 of 3): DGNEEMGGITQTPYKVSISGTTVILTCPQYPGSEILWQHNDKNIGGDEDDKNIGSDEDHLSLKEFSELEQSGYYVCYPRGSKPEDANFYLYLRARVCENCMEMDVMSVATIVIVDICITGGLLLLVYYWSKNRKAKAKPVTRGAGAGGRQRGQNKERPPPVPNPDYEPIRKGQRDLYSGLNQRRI
Sequence of human CD3 (human) (P09693 23-182, chain 2 of 3): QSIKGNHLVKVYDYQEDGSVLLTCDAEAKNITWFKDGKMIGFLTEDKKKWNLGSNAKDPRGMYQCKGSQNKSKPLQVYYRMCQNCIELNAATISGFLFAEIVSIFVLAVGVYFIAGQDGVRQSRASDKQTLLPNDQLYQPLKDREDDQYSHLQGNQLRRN
Sequence of human CD3 (human) (P04234 22-171, chain 3 of 3): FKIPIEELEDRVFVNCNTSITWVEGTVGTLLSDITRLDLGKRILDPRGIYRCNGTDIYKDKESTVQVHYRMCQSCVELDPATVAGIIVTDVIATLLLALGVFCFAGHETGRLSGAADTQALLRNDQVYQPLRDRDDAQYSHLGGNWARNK

With OKT3 antibody as the substance, how does the T-cell activation (CD69/CD25, flow cytometry, 48 h) read?
The T-cell activation (CD69/CD25, flow cytometry, 48 h) was over 50%.
